# Assay results published in doi:10.1101/383430 (bioRxiv, 2018).
# T1: FAP45 (flagellar-associated protein 45) (Chlamydomonas (endogenous in axonemes), UniProt A8I9E8 1-501)
# T1 sequence (looked up): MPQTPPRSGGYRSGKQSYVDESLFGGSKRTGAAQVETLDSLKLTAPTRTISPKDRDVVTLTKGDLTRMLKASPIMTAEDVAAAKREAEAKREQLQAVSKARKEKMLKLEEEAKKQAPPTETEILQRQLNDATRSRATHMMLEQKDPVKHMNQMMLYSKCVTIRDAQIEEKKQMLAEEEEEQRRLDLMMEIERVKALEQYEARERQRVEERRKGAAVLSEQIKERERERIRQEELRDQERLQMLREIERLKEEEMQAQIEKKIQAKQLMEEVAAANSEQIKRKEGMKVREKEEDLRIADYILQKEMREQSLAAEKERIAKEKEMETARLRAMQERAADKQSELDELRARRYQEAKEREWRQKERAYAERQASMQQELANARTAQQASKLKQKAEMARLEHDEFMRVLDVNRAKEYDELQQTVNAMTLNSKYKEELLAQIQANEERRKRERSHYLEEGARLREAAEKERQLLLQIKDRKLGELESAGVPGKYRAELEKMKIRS
# B1: FAP52 (flagellar-associated protein 52) (natural protein, Chlamydomonas (endogenous in axonemes), UniProt A8ILK1 1-615, looked up)
# chain: MAEPLVLNSVIGFGGAIENGLIAHPDGRTIIYPLGSTIVLRDRADPRSQEFLQGHSDKVSCLALSRSGRYLASGQITYMGFTADIIIWDLESKQLIHRMALHKVKVQALDFSCDERFLASLGGQDDNALVLWDVASGNAICGSPCNTNFTNCVKFFNNSPDKLITAGNFNMNVWTYDAGNNKLRPTDATLGTLKRVFKSVVVDANDEYAYCGTTTGDVLQIALERVLFKNTGPAKGNVQMGVTATCEVPTGDILVGGGDGSLQLLRKMPALAGTKVEGAITSIALADMNARGFTFFVGTAMCNIYKPATSRLKEELVQTAHNDKINGMAFPNEYSEVFATCGTGFIRLWHLTTCRELLRIAVPNLECFCIAFTTDGSAILSGWSDGKIRAFGPQSGKIIFTINDAHQKAVTAIASTADSSRILSGGEEGMVRVWRIGRTSQTLEASMKDHKGPVNCIRIKGSGDECVSASSDGSCILWDLHTFKRRTSLFANTFFKSVVYHPDESQLVTAGTDRKVTYWDAYDGNAIRIIDGSDLDEVNALAVDRDGEALVSGGGDKLVKLWGYDEGHCYFVGVAHSGAITAVGVTPDKQRIVSVGTEGGIFIWDYQRPQTLADI
# Molecular target: T1, FAP45 (flagellar-associated protein 45)
# Experiment: cross-linking
binder,measurement,value
B1,stoichiometry N,~1
